Fewer inactive variants are shown than the library holds.
B1: TPR 5TU (parent)
chain: GGAUCUUCUCGAUCUAACAAAAAAGACAAAUCUGCCACAAAGCUUGAGAGCAUCUUCGGAUGCAGAGGCGGCAGCCUUCGGUGGCGCGAUAGCGCCAACGUUCUCAACUAUGACACGCAAAACGCGUGCUCCGUUGAAUGGAGUUUAUCAUG

Variants of: B1
Test: polymerase ribozyme fitness, log enrichment relative to wild type (log ratio); higher = more active; in vitro selection for triplet polymerase activity
In short: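 Fitness measures genotype enrichment against wild-type enrichment on a logarithmic scale, with inverse-variance-weighted averaging of replicates. The logarithm is base 2, and genotypes were kept only with ≥10 input reads and ≥1 read per output in Illumina sequencing. The sequenced libraries came from one triplicate in vitro selection round, including frozen incubation at −7 °C, of PCR-built, transcribed mutant libraries of each subunit of a heterodimeric triplet polymerase ribozyme.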

Variant	polymerase ribozyme fitness (log ratio)
GGAUCUUCUCCAUCUAACAAAAAAGACAAAUCUGCCACAAAGCUUGAGAGCAUCUUCGGAUGCAGAGGCGGCAGCCUUCGGUGGCGCGAUUGCGCCAACGUUCUCAACUAUGACACGCAAAACGCGUGCUCCGUUGAAUGGAGUUUAUCAUG	-4.11
GGAUCUUCUCGAUCUAACGAAAAAGACAAAUCUGCCACAAAGCUUGAGAACAUCUUCGGAUGCAGAGGCGGCAGCCUUCGGUCGCUCGAUAGCGCUAACGUUCUCAACUAUGACACGCAAAACGCGUGCUCCGUUGAAUGGAGUUUAUCAUG	≤ -4.2
GGAUCUUCUCGAUCUAACAAAAAUGACAAAUCUGCCACAAAGCUUGAGAGCAUCUUCGGAAGCAGAGGCGGCAGCCUUCGGUGGCGCGAUAGAGCCAACGUUCUCAACUAUGACAGGCAAAACGCGUGCUCCGUUGAAUGGAGUUUAUCAUG	-4.17
GGAUCUUCUUGAUCUAACAAAAAAGACAAAUCUGCCACAAAGCUUGAGAGCAUCUUCGGAUGCAGAGGCGGCAGCCUUCGGUGGAGCGAUAGCGCCAACGUUCUCAACUAUGACACGCAAAACGCGUGCUCCGUUGAAUGGAGUUUAUCAUG	-3.35
GGAUCUUCUCGAUCUAACAAAAAAGACAAAUCUGCCACAAAGCUUGAGAGCAUCUUCGGAUGCAGAGGUGGCAGCCUUCGGUGUCGCGAUAGCGCCAACGUUCUCAACUAUGACACGCAAAACGCGUGCUCCCUUGAAUGGAGUUUAUCAUG	-3.62
GGAUCUUCUCGAUCUAACAAAAAAGAGAAAUCUGCCUCACAGCUUGAGAGCAUCUUCGGAUGCGGAGGCGGCAGCCUUCGAUGGCGCGAUAGCGGCAACGUUCUCAACUAUGACACGCAAAACGCGUGCUCCGUUGACUGGAGUUUAUCAUG	-3.88
GGAUCUUCUCGACGUAACAAAAAAGACAAAUCUGCCACAAAGCUUGAGAGCAUCUUCGGAUGCAGGGGCGGCGGCCUUCGGUGGCGCGAUAGCGUCAACGUUCUCAACUGUGACACGCAAAACGCGUGCUCCGUUGAAUGGAGUUUAUCAUG	≤ -4.2
GGAUCUUCUCGAUCUAACAAAAAAGACAAAUCUGCCACAAAGCUUAAGAGCAUCUUCGGAUGCAGAGGCGGCAGCAUUCGGUGGCGCGAUAGCGCUAACGUUCUCAACUAUGACACGCAAAACGCGUGCUCCGUUGAAUGCAGUUUAUCAUG	≤ -4.2
GGAUCUUCUCGUUCUAACAAAAAAGACAAAUCUGCCACAAAGCUUGAGAACAUCUUCGGAUGCAGAGGCGGCAGCCUUCGGUGGAGCAAUAGCGCCAACGUUCUCAACUAUGACACGCAAGACGCGUGCUCCGUUGAAUGGAGUUUAUCAUG	≤ -4.2
GGAUCUACUCGAUGUAACAAAAAAGACAAAUCUGCCACAAAGCUAGAGAACAUCUUAGGAUGCAGAGGCGCCAGCCUUCGGUGGCGCGAUAGCGCCAACGUUCUCAACUUUUACACGCAAAACGGGUGCUCUGUUGAAUGGAGUUUAUCAUG	≤ -4.2
GGAUCUUCUCGAUCUAACACAAAUGACAAAUCUGCCACAAAGCAUGAGAGCAUCUUCGGAUGCAGAGGCGGCAGCCUUCGGUGGCGCAAUAGUGCCAACGUUCUCAACUAUGACACGCAAAACGCGUGCUCCGUUGAAUGGAGUUUAUCAUG	≤ -4.2
GGAUCUUCUCGAUCUAACAAAAAAGACAAAUCUGCCACAAAGCUUGAGAGCAUCUUCGGAUGGAGAGGCGGCAGCCUUCGCAGGCGCGAUAGCGCCAACGUUCUCAACUAUGACACGCAAAACGCGUGCUCCGUUGAAUGGAGUUUAUCAUG	-0.391
GGAUCUUCUCGAUCGAACAAAAAAGACAAAUCUGCCACAAAGCUUGAGAGCAUUUUCGGUUGCAGAGGCGGCAGGCUUCGGUGGCGCGAUAGCGCCAACGUUCUCAACUAUGGCACGCAAAACGCGUGCUCCGUUGAAUGGAGUUUAUCAUG	≤ -4.2
GGAUCUUCUCGAUCUAACAAAAAAGACAAAUCUACCACAAAGCUUGAGAGCAUCUUCGGAUGCAGAGGCGGCAGCCUUCGGUGGCGCGAUAGCGCCAACGUUCUCAACUAUGACACGCAAAACGCGUGCUCCGUUGAAUAGAGUUUAUCAUG	-3.88
GGAUCUUCUCGAUCUAACAAAAAAGACAAAUCUGCCACAAAGCUUGAGAGCAUCUUCGGAUGCAGACGCGGCAGCCUUCGGUGGCGCGAUAGGGCCAACGUUCUCAACUAUGACACGGAAAACGCGUGCUCCGUUGAAUGGAGUUUAUCCUG	≤ -4.2
GGAUCUUCUCGAUCUUACAAAAAAGAGUAACCUGCCACAAAGCUUGAGAGCAUCUUCGGAUGCAGAGGCGGCAUCCUUCGGAGGCGCGAUAGCGCCAACGUUCUCAACUAUGACACGCAAAACGCGUGCUCCGUUGAAUGGAGUUUAUCAUG	≤ -4.2
GGAUCUUCUCGAUCUAACAAAAAAGACUAAUCUGCCACAAAGCGUGAGAGCAUCUUCGGAUGCAGAGGCGGCAGCCUUCGGGGGCGUGAUAGCGCCAACGUUCUCAACUAUGAUACGCAAAACGCGUGCUCCAUUGAAUGGAGUUGAUCAUG	≤ -4.2
GGAGCUUCUCGAUCUAACAAAAAGGACAAAUCUGCCACAAAGCAUGAGAGCAUCUGCGGAUGCAGAGGCGGCAGCCUUCGGUGGCGCGAUAGCACCAACGUUCUCAACUAUGACACGCAAAACGCGUGCUCCGUUGACUGGAGUUUAUCAUG	≤ -4.2
GGAUCUUCUCGAUCUAACAAAAAAGACAGAUCUGCCACAAAGCUUGAGAGCAUCUUCGGAUGCAGAGGCGGCAGCCUUCGGUGGCGCGAGAGCGCCAACGUUCUCAACUAUGACACGCAAAUCGCGUGCUCCGUUGAAUGGUGUUUAUGAUG	≤ -4.2

— the RNAGym collection of RNA variant scans (doi:10.1073/pnas.2313332121)
